Reference: paper PMC4833398

How the values were obtained:
[1] = biological target: 1VH8-scaffolded V1V2 from HIV-1 strain CAP256-SU (trimeric scaffold); assay: crystal structure
[2] = biological target: these trimeric scaffolded V1V2s (1VH8- and 4F2K-scaffolded), expressed and purified in GnTI- cells; assay: SPR

**Q.** With “1VH8-scaffolded V1V2 from HIV-1 strain CAP256-SU (trimeric scaffold)” as the molecule, how does the stoichiometry N [1] read?
**A.** The stoichiometry N was 3.

B1: bNAb PG9 (antibody, V domains shown)
VH: QRLVESGGGVVQPGSSLRLSCAASGFDFSRQGMHWVRQAPGQGLEWVAFIKYDGSEKYHADSVWGRLSISRDNSKDTLYLQMNSLRVEDTATYFCVREAGGPDYRNGYNYYDFYDGYYNYHYMDVWGKGTTVTVSS
VL: QSALTQPASVSGSPGQSITISCNGTSNDVGGYESVSWYQQHPGKAPKVVIYDVSKRPSGVSNRFSGSKSGNTASLTISGLQAEDEGDYYCKSLTSTRRRVFGTGTKLTVL
**Q.** B1 was tested. Which Kd [2] did it give?
**A.** Its Kd is 0.024 to 0.5 µM.

B2: bNAb CH01 (antibody, V domains shown)
VH: EVQLVESGANVVRPGGSLRLSCKASGFIFENFGFSWVRQAPGKGLQWVAGLNWNGGDTRYADSVKGRFRMSRDNSRNFVYLDMDKVGVDDTAFYYCARGTDYTIDDAGIHYQGSGTFWYFDLWGRGTLVSVSS
VL: EIVLAQSPGTLSLSPGERATLSCRASHNVHPKYFAWYQQKPGQSPRLLIYGGSTRAAGIPGKFSGSGSGTDFTLTISRVDPEDFAVYYCQQYGGSPYTFGQGTKVEIK
**Q.** For B2, which Kd [2] is on record?
**A.** The Kd was 20 to 50 µM.
